Test results: paper PMC7111312 (Virology, 2019)

Target: the molecule itself
Experiment: crystal structure

B1: Wild type CavV 3CLpro (Cavally virus 3C-like protease) (enzyme, Cavally virus (CavV), UniProt F8RL29 1387-1700, looked up)
chain: SAASNPSISHIVLEMPVAINPLIKYTTRTSVSSLRGAVVNGYIYIQRHLFGSKKQEFEACYNNGKGLLNCKNLERSKYDIDSAELIGTLIRIPLHDKHSIPHISIHPDPLSYNGPVTLYLSRYDTELNKDVLCVHTGFMSEGHHDIKTVFGDCGGMLFDPKGRLLGLHCAGSDDVVFMDTTTGKSNIWTSYKLQHPSEIMITLNNEINLPNPANYDFETTKVVYQHPLRNVCATLETLQHLTNKTNAKLPYDSRLLSDFNITAEQYNQYGYYIDYNNFVNNFNRYTTTTIGTKSFETCIKYGLMDNKKPDYYNQ
- stoichiometry N: 2
